Experimental data reported in patent US20040147432A1 (MERCK, published 2004).
Bridges are numbered along the chain shown (N, C = ends). [ ]: non-standard residue; d: D form. The star is where a group is joined. Pentanoyl(5-guanidino) = NC(N)=NCCCCC(=O)*; hArg = N=C(N)NCCCC[C@H](N)C(=O)O; Nle = CCCC[C@H](N)C(=O)O; GABA = NCCCC(=O)O; βAla = NCCC(=O)O

What was measured:
[1] = target: T1, human melanin concentrating hormone type 2 receptor (MCH-2R) (human, UniProt Q969V1 1-340); test: cell-based or functional assay
[2] = target: T2, human MCH-1R (human, UniProt Q99705 1-353); test: cell-based or functional assay
[3] = target: T1, human melanin concentrating hormone …; test: SPA competition with [125I]-human MCH (Phe13, Tyr19) on receptor membranes
Experimental: (§1) For the SPA-based assay, WGA-PVT beads (NEN Life Sciences Products) were resuspended in Dulbecco's PBS with calcium and magnesium (500 mg beads in 4 ml PBS). […] The suspension was mixed gently for 20 minutes, 12.3 ml of assay buffer and protease inhibitors were added (final concentration given): 2 μg/ml leupeptin, 10 μM phosphoramidon, 40 μg/ml bacitracin, 5 μg/ml aprotinin, 0.1 mM Pefabloc.
(§2) Coated beads were kept on ice until use. […] Binding reactions were allowed to proceed at room temperature for 3 hours. Quantitation was performed by scintillation counting (TopCount device).

[4] = target: T2, human MCH-1R; test: as above
Experimental: as §1, §2

T1 sequence (Q969V1 whole entry, form in doubt): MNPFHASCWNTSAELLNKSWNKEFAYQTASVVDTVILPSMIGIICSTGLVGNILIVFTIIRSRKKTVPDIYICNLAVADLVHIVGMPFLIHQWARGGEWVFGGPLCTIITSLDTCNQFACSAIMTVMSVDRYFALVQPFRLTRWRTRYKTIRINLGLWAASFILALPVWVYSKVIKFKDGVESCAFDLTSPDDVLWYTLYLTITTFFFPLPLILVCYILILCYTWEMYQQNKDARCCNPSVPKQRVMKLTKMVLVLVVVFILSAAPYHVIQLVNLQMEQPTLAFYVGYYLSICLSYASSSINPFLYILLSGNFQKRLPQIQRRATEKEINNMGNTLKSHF
T2 sequence (Q99705 whole entry, form in doubt): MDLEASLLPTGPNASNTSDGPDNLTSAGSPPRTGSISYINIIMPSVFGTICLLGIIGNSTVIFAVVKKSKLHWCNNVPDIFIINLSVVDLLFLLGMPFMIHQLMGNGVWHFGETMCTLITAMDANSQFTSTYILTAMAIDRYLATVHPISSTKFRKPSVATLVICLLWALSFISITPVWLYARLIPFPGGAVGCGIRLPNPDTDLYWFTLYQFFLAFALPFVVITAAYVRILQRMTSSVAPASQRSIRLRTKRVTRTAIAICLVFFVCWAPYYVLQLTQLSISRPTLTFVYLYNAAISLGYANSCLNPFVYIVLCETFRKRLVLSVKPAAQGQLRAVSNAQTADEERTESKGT

Binder	Activation % at 10 µM (aequorin functional assay) [1] [%]	EC50 (aequorin functional assay) [1] [nM]	Activation % at 10 µM (aequorin functional assay) [2] [%]	EC50 (aequorin functional assay) [2] [nM]	IC50 [3] [nM]	% @ concentration [4]	IC50 [4] [nM]	% @ concentration [3] [% @ 10 µM]
RCMLGRVYRXC (Sar^15 (sarcosine)) [SEQ. ID. NO. 32]	91	12	113					
Ac-RCML[βAla]RVYRPC-NH2 (disulfide 2-11 (inferred)) [SEQ. ID. NO. 20]	92		3.2	> 1000				
RCMLXRVYRPC (D-Nle^10, also called D-Nle^10) [SEQ. ID. NO. 15]	78		33		2.3			
RCMLXRVYRPC (Sar^10 (sarcosine)) [SEQ. ID. NO. 6]	94	40	95					
RCALXRVYRPC (not fully specified; D-Ala^10, also called Ala^8, D-Ala^10) [SEQ. ID. NO. 35]	120	140		> 10000		70 % @ 1 µM		
RCXLGRVYRPC (Nle^8 (norleucine), also called Nle^8) [SEQ. ID. NO. 5]	105	12	105				0.5	
Ac-CMLGRVYRPC-NH2 (disulfide 1-10; not fully specified, positions numbered as in hMCH; also called ?Arg^6) [SEQ. ID. NO. 3]		1500	6.5	300			1.6	38.5
Ac-RCML[GABA]RVYRPC-NH2 (disulfide 2-11 (inferred), also called εAbu^10) [SEQ. ID. NO. 21]	112		101				2.1	
RCMLGRVXRPC (Phe(pNH2)^13) [SEQ. ID. NO. 30]	70	24	88					
RCMLGRVXRPC (Cha^13 (2-cyclohexyl-alanine), also called Cha^13) [SEQ. ID. NO. 31]	76		93		9			
Ac-RCALGRVYRPC-NH2 (disulfide 2-11; SMILES CC(=O)N[C@@H](CCCNC(=N)N)C(=O)N[C@H]1CSSC[C@@H](C(N)=O)NC(=O)[C@@H]2CCCN2C(=O)[C@H](CCCNC(=N)N)NC(=O)[C@H](Cc2ccc(O)cc2)NC(=O)[C@H](C(C)C)NC(=O)[C@H](CCCNC(=N)N)NC(=O)CNC(=O)[C@H](CC(C)C)NC(=O)[C@H](C)NC1=O, also called Ala^8) [SEQ. ID. NO. 4]	104	12	42	4100	18		15	
Ac-RCMLGRVFRPC-NH2 (disulfide 2-11; SMILES CSCC[C@@H]1NC(=O)[C@@H](NC(=O)[C@H](CCCNC(=N)N)NC(C)=O)CSSC[C@@H](C(N)=O)NC(=O)[C@@H]2CCCN2C(=O)[C@H](CCCNC(=N)N)NC(=O)[C@H](Cc2ccccc2)NC(=O)[C@H](C(C)C)NC(=O)[C@H](CCCNC(=N)N)NC(=O)CNC(=O)[C@H](CC(C)C)NC1=O, also called Phe^13) [SEQ. ID. NO. 27]	94	12	96	46	1.5		1	
Ac-RCMLARVYRPC-NH2 (disulfide 2-11; SMILES CSCC[C@@H]1NC(=O)[C@@H](NC(=O)[C@H](CCCNC(=N)N)NC(C)=O)CSSC[C@@H](C(N)=O)NC(=O)[C@@H]2CCCN2C(=O)[C@H](CCCNC(=N)N)NC(=O)[C@H](Cc2ccc(O)cc2)NC(=O)[C@H](C(C)C)NC(=O)[C@H](CCCNC(=N)N)NC(=O)[C@H](C)NC(=O)[C@H](CC(C)C)NC1=O, also called Ala^10) [SEQ. ID. NO. 7]	97	7.7	104	31	4.6		0.59	
RCMLLRVYRPC (also called Leu^10) [SEQ. ID. NO. 8]	80	54	106	23	20		0.06	
Ac-RCMLSRVYRPC-NH2 (disulfide 2-11; SMILES CSCC[C@@H]1NC(=O)[C@@H](NC(=O)[C@H](CCCNC(=N)N)NC(C)=O)CSSC[C@@H](C(N)=O)NC(=O)[C@@H]2CCCN2C(=O)[C@H](CCCNC(=N)N)NC(=O)[C@H](Cc2ccc(O)cc2)NC(=O)[C@H](C(C)C)NC(=O)[C@H](CCCNC(=N)N)NC(=O)[C@H](CO)NC(=O)[C@H](CC(C)C)NC1=O, also called Ser^10) [SEQ. ID. NO. 10]	95	44	104	65	52		0.32	
Ac-RCMLGAVYRPC-NH2 (disulfide 2-11; SMILES CSCC[C@@H]1NC(=O)[C@@H](NC(=O)[C@H](CCCNC(=N)N)NC(C)=O)CSSC[C@@H](C(N)=O)NC(=O)[C@@H]2CCCN2C(=O)[C@H](CCCNC(=N)N)NC(=O)[C@H](Cc2ccc(O)cc2)NC(=O)[C@H](C(C)C)NC(=O)[C@H](C)NC(=O)CNC(=O)[C@H](CC(C)C)NC1=O, also called Ala^11) [SEQ. ID. NO. 23]	36	> 1000		> 10000	9.7			
RCMLGRVXRPC (Phe(pF)^13, also called Phe(pF)^13) [SEQ. ID. NO. 29]	100		98				0.6	
Ac-RCMLG[Nle]VYRPC-NH2 (disulfide 2-11 (inferred), also called Nle^11) [SEQ. ID. NO. 26]	34	58		> 1000	9		301	
RCMLGRVXRPC ((2)Nal^13 ((2')naphthylalanine)) [SEQ. ID. NO. 28]	90	19	105					
Ac-RCML[dA][hArg]VYRPC-NH2 (disulfide 2-11 (inferred), also called D-Ala^10, Harg^11) [SEQ. ID. NO. 36]	74	19	0.1	> 10000	0.9		56	
RCALXXVYRPC (D-Ala^10, Harg^11 (homoarginine), also called Ala^8, D-Ala^10, Harg^11) [SEQ. ID. NO. 38]	49	730	20	> 10000		83 % @ 10 µM		
RCMLGXVYRPC (N-Me-Arg^11) [SEQ. ID. NO. 22]	86		110					
RCMLGRVYRPX (D-Cys^16, also called D-Cys^16) [SEQ. ID. NO. 33]	90		76		2.3			
RCMLXRVYRPC (Nle^10 (norleucine)) [SEQ. ID. NO. 9]	103	16	106	15				
RCMLXRVYRPC (D-Leu^10) [SEQ. ID. NO. 14]	83		23					
[Pentanoyl(5-guanidino)]CML[dA]RVYRPC-NH2 (disulfide 2-11 (inferred); not fully specified, also called (?-NH2)-Arg^6, D-Ala^10) [SEQ. ID. NO. 34]	110	31	4	2000	250		30	
